These results are taken from patent US20100092998A1 (PENN STATE RESEARCH FOUNDATION, published 2010).

This experiment concerns the target T1, human ubiquitin conjugating enzyme E2 protein Ubc-7 (human, UniProt P60604 1-165, limits assumed).
T1 construct: also called Homo sapiens ubiquitin-conjugating enzyme E2G 2; UCE E2 Ubc7
T1 sequence: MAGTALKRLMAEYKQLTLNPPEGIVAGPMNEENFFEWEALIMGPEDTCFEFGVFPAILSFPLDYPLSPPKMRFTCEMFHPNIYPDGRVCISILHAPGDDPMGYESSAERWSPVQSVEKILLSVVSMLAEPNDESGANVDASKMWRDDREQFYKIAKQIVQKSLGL
Put plainly: crystal structure of the gp78-Ubc7 fusion protein (SEQ ID No. 12) solved to 2.2 Å.

B1: gp78 E3 RING motif with flanking sequence (amino acid residues 322 to 393 of the full-length gp78 E3 protein) (other)
chain: MEARFAVATPEELAVNNDDCAICWDSMQAARKLPCGHLFHNSCLRSWLEQDTSCPTCRMSLNIADNNRVREE
notes: also called gp78 RING; gp78RING motif
In the case of B1, the binding result is “binds”.
